Patent publication US20210340268A1 (GENERAL HOSPITAL, published 2021)

Key:
[1] = target: T1, recombinant human TNFR2 (human tumor necrosis factor receptor 2) (human, UniProt P20333 23-257); assay: SPR (Biacore 3000), biotinylated antibody captured on streptavidin, recombinant human TNFR2 in solution
T1 sequence: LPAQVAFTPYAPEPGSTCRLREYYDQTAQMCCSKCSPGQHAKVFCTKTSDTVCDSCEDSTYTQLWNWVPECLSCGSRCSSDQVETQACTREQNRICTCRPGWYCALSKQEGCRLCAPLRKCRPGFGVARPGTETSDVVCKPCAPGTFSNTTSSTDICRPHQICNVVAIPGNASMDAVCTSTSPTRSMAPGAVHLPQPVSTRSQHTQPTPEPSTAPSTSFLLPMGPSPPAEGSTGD
Description: The affinities of antagonistic TNFR2 antibodies for recombinant human TNFR2 were measured using BIACORE™ Analysis Services (Precision Antibody). Briefly, the antibody was biotinylated at a 5:1 stoichiometric ratio using biotinyl-LC-LC-[…] (Thermo-Fisher) in PBS. Excess biotinylation reagent was removed by centrifugation chromatography and the biotinylated antibody was captured on 3000 RU of streptavidin surface to a level of 100 RU. […] Analysis of the kinetics of antigen binding was performed at a flow of 60 μL/min with 2 min injections. Antibodies were injected at a concentration of 1 mg/ml to the final capture of 100 RU. The instrument used was BIACORE™ 3000 with the BioCap chip (GE Healthcare). Double reference method was used for analysis. Reference channel contained the identical level of streptavidin.

[2] = target: T2, epitope containing residues 56-60 of SEQ ID NO: 7 within human TNFR2 (KCSPG) (human); assay: epitope mapping analysis (peptide ELISA)
T2 construct: Motif within CRD1 of TNFR2
T2 peptide: KCSPG

binding result [2]: no binding
B1: TNFRAB1 (antibody, V domains shown)
VH: EVQLQESGGGLVKPGGSLKLSCAASGFTFSSYVMSWVRQTPEKRLEWVATISSGGSYTYYPDSVKGRFTISRDNAKNTLYLQMSSLRSEDTAMYYCARQRVDGYSSYWYFDVWGAGTAVTVSS
VL: DIVLTQSPAIMSASPGEKVTITCSASSSVYYMYWFQQKPGTSPKLWIYSTSNLASGVPVRFSGSGSGTSYSLTISRMEAEDAATYYCQQRRNYPYTFGGGTKLEIKR
notes: Murine monoclonal antibody with two heavy and two light chains; also called antagonistic TNFR2 antibody TNFRAB1
Kd [1]: ~0.0444 nM
koff [1]: 0.000221 s⁻¹
kon [1]: 4.98e+06 M⁻¹ s⁻¹
